Measured values reported in PMC2814086 (Molecular Microbiology, 2009).

Biological target: the molecule itself
Test: mass spectrometry

B1: MinE-His (wild-type MinE with a His tag, plasmid pSOT13 [PT7::minE-his]) (natural protein, E. coli, UniProt P0A734 1-88, looked up)
chain: MALLDFFLSRKKNTANIAKERLQIIVAERRRSDAEPHYLPQLRKDILEVICKYVQIDPEMVTVQLEQKDGDISILELNVTLPEAEELK
- stoichiometry N: 2
